Results: publication PMC7145517

Key:
[1] = target: Myceliophteria thermophila RbBP5 β-propeller domain (residues 1-347); test: ITC; settings: parent: 0.25
[2] = target: Myceliophteria thermophila RbBP5 β-propeller domain (residues 1-347) (Myceliophteria thermophila); test: ITC; VP-ITC; CtCfp1 RID (350 μM) injected into MtRbBP5 β-propeller (35 μM); 20°C; 50 mM Tris pH 8.0, 200 mM NaCl, 2.5 mM β-mercaptoethanol

Substance | Kd [1] | fold loss in binding against wild-type Cfp1 [2]
Chaetomium thermophilum Cfp1 RID domain (residues 322-508) Y380A | 4.06 µM | 
Chaetomium thermophilum Cfp1 RID domain, Tyr380 substituted by an alanine (domain or fragment) |  | 20 fold
